For one substance, Km and kcat/Km results are on record in publication PMC6471826, “Cold-Adapted Glutathione S-Transferases from Antarctic Psychrophilic Bacterium Halomonas sp. ANT108: Heterologous Expression, Characterization, and Oxidative Resistance” (Marine Drugs, 2019).

This series concerns O=[N+]([O-])c1ccc(Cl)c([N+](=O)[O-])c1. Description: purified protein. The note with it: co-substrate GSH, CDNB 0.5-4.5 mM, 25 °C.

As usually defined, the Km is the substrate concentration at which the rate is half of its maximum. One may read the kcat/Km as the second-order rate constant that governs catalysis at low substrate concentration. On to rHsGST (Halomonas sp.), for which the Km amounted to 2.86 mM and the catalytic efficiency (kcat/Km) is 18800 M⁻¹ s⁻¹.
